The target in series [1] is T1, antichymotrypsin (ACT) (Homo sapiens, UniProt P01011 24-423).
T1 sequence: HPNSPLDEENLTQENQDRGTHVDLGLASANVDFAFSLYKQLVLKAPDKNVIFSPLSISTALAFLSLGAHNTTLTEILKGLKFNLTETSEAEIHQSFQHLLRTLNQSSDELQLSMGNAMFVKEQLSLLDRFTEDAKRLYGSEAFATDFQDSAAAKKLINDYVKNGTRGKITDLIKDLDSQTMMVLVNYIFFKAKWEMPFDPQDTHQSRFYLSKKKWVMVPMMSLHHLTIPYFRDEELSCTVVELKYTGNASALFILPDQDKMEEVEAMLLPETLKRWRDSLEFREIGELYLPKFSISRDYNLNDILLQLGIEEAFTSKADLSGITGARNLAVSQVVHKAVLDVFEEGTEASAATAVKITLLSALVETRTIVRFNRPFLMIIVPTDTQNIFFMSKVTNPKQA
Put plainly: DRaCALA; Buffer 1 (150 mM NaCl), 1 uM protein; DRaCALA: Buffer 2, 20 mM Tris/HCl pH 7.8, 15 mM NaCl, 50 nM labeled ssDNA, 10 min at 20 C; screening also in Buffer 1 (20 mM Tris/HCl pH 7.8, 150 mM NaCl) and Buffer 3 (20 mM Tris/HCl pH 7.8, 15 mM KCl). The note with it: label: 5'-32P.

In series [2] the target is T2, NHB vaspin (nonheparin-binding) (Homo sapiens, UniProt Q8IW75 21-414, K131A;K188A;R211A;K359A;R363A).
T2 sequence: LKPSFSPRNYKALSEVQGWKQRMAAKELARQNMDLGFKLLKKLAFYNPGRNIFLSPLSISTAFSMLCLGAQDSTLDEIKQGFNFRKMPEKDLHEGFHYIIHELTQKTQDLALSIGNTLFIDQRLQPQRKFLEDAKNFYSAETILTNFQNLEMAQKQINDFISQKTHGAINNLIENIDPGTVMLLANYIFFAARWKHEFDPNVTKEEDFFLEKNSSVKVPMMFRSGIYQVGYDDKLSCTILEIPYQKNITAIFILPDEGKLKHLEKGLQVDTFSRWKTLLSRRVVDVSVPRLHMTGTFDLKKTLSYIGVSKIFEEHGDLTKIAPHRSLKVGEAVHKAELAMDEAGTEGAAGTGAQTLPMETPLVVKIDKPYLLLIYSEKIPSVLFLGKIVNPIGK
Put plainly: DRaCALA; Buffer 2; DRaCALA: Buffer 2, 20 mM Tris/HCl pH 7.8, 15 mM NaCl, 50 nM labeled ssDNA, 10 min at 20 C; screening also in Buffer 1 (20 mM Tris/HCl pH 7.8, 150 mM NaCl) and Buffer 3 (20 mM Tris/HCl pH 7.8, 15 mM KCl). The note with it: protein: recombinant; label: 5'-32P.

The target of series [3] is T3, vaspin WT (Homo sapiens, UniProt Q8IW75 21-414).
T3 sequence: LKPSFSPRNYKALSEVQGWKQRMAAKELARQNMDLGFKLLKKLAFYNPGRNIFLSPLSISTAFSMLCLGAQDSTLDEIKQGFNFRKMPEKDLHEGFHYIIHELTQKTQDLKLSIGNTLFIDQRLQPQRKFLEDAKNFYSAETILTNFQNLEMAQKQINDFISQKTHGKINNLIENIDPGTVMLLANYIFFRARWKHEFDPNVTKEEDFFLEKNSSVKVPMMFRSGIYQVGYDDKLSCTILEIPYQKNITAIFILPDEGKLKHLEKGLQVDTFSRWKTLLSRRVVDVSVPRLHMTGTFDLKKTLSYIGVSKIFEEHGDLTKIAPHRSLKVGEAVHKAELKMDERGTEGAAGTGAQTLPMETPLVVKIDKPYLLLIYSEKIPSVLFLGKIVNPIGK
The description is as above. Conditions: protein: recombinant; label: 5'-32P.

The target of series [4] is KLK7 (kallikrein 7) (Homo sapiens, UniProt P49862 30-253). The description is as above. The note with it: protein: recombinant; label: 5'-32P.
Sequence of KLK7 (kallikrein 7) (P49862 30-253): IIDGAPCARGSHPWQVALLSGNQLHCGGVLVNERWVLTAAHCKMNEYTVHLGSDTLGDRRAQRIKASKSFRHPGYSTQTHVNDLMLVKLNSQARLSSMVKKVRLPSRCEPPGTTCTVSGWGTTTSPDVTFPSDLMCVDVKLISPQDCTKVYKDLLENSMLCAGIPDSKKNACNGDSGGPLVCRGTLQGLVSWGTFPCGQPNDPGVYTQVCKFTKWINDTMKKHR

B1: 60 base ssDNA (ssDNA)
DNA: GACGGATCGGGAGATCTCCCGATCCCCTATGGTGCACTCTCAGTACAATCTGCTCTGATG
One may read the Kd as the constant that tells how readily two partners part at equilibrium. For B1, the binding result in series [1] is “no binding”. The Kd in series [2] is 188 nM; in series [3] it was 117 nM; in series [4] it was 815 nM.

B2: 120 base ssDNA (ssDNA)
DNA: GACGGATCGGGAGATCTCCCGATCCCCTATGGTGCACTCTCAGTACAATCTGCTCTGATGCCGCATAGTTAAGCCAGTATCTGCTCCCTGCTTGTGTGTTGGAGGTCGCTGAGTAGTGCG
As to B2, the Kd in series [2] was 178 nM; in series [3], 128 nM; in series [4], 1070 nM.

For the molecule GACGGATCGGGAGATCTCCC (ssDNA) [20 base ssDNA], the Kd in series [2] worked out at 269 nM; in series [3], 59 nM; in series [4], 2070 nM.
